Test results from publication PMC12151148 (2024).

T1: AGS3-GL1234 (470–631) (mouse)
T1 chain: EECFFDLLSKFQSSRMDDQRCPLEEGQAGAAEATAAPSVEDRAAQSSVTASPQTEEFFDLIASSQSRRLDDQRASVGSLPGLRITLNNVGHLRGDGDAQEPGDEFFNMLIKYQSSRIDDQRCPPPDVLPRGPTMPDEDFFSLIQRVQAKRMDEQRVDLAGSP

T2: LGN GL3 motif (mouse)
T2 chain: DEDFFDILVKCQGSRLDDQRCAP

T3: LGN GL4 motif (mouse)
T3 chain: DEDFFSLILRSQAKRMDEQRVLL

T4: LGN-GL1234 (483–650) (mouse)
T4 chain: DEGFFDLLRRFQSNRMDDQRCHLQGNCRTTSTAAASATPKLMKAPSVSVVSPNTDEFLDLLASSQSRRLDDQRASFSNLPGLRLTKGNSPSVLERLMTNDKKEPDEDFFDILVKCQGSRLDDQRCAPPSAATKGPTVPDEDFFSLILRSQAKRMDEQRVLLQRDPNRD

T5: NuMA (1886–1912) (human, UniProt Q14980-2 1886-1912)
T5 chain: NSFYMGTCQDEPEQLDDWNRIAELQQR

T6: AGS3-L (−23–405) (mouse)
T6 chain: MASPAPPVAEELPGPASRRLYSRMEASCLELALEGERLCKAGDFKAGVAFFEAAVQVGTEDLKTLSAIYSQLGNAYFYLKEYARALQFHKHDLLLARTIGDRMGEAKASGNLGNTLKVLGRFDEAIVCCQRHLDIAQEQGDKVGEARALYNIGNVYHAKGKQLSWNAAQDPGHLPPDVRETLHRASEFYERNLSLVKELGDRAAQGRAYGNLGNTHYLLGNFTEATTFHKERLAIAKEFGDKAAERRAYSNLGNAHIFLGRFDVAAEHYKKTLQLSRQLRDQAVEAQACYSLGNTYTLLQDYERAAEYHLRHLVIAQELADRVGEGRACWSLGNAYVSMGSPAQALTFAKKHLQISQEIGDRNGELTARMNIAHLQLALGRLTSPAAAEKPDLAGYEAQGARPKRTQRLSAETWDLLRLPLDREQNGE

T7: FL-AGS3-4E (mouse, UniProt Q6IR34)
T7 sequence (Q6IR34 whole entry, looked up): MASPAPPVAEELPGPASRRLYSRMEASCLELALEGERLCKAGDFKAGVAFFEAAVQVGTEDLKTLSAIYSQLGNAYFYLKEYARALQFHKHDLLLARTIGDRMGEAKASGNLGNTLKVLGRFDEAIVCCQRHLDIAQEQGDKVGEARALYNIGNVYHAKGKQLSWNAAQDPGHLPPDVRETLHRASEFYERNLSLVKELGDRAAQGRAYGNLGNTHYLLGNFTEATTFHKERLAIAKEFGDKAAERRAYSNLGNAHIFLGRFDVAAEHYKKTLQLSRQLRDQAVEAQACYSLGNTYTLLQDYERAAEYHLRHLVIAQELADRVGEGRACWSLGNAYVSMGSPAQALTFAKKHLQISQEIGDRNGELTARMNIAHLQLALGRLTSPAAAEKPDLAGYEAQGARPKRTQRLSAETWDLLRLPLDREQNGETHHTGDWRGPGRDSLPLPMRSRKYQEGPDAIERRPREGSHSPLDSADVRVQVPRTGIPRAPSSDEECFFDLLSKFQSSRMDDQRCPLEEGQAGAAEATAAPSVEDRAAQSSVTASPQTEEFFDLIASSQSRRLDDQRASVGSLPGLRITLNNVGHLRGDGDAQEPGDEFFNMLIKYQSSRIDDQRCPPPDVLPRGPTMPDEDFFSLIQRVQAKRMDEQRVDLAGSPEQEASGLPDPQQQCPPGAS

T8: FL-LGN-4E (mouse, UniProt Q8VDU0)
T8 sequence (Q8VDU0 whole entry, looked up): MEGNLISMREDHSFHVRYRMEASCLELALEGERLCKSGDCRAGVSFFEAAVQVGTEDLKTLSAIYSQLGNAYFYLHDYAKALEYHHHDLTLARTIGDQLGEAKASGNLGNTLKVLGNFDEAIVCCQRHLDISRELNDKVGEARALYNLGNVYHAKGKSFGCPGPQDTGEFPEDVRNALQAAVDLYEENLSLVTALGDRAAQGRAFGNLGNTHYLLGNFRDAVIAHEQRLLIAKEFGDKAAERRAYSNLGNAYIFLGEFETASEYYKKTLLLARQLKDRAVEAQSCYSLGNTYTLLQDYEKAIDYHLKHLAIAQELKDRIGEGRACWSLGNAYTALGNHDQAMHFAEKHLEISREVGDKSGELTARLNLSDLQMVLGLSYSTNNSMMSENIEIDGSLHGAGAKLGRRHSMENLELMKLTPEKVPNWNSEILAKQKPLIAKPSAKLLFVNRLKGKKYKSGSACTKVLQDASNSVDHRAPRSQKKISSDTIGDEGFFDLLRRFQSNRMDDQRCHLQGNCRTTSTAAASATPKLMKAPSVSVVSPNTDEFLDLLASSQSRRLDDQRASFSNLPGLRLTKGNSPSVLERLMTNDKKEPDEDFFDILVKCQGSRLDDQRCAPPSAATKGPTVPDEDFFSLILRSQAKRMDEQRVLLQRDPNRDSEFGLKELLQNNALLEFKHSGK

T9: AGS3-TPR (1–405) (mouse)
T9 chain: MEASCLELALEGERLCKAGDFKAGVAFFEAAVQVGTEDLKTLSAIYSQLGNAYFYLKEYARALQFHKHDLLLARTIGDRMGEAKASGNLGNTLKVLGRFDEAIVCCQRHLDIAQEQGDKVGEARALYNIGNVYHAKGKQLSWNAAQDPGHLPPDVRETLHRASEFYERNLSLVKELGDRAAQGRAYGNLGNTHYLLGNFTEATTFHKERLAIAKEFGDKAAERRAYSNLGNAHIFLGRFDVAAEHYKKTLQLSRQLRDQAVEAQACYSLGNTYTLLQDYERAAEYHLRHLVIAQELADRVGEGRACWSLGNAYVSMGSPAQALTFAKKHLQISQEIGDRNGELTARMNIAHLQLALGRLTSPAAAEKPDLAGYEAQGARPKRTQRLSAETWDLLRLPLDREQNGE

B1: Gαi3⋅GDP (natural protein)
chain: MGCTLSAEDKAAVERSKMIDRNLREDGEKAAKEVKLLLLGAGESGKSTIVKQMKIIHEDGYSEDECKQYKVVVYSNTIQSIIAIIRAMGRLKIDFGEAARADDARQLFVLAGSAEEGVMTPELAGVIKRLWRDGGVQACFSRSREYQLNDSASYYLNDLDRISQSNYIPTQQDVLRTRVKTTGIVETHFTFKDLYFKMFDVGGQRSERKKWIHCFEGVTAIIFCVALSDYDLVLAEDEEMNRMHESMKLFDSICNNKWFTETSIILFLNKKDLFEEKIKRSPLTICYPEYTGSNTYEEAAAYIQCQFEDLNRRKDTKEIYTHFTCATDTKNVQFVFDAVTDVIIKNNLKECGLY
B2: LGN-TPR (1–409) (domain or fragment)
chain: MREDHSFHVRYRMEASCLELALEGERLCKSGDCRAGVSFFEAAVQVGTEDLKTLSAIYSQLGNAYFYLHDYAKALEYHHHDLTLARTIGDQLGEAKASGNLGNTLKVLGNFDEAIVCCQRHLDISRELNDKVGEARALYNLGNVYHAKGKSFGCPGPQDTGEFPEDVRNALQAAVDLYEENLSLVTALGDRAAQGRAFGNLGNTHYLLGNFRDAVIAHEQRLLIAKEFGDKAAERRAYSNLGNAYIFLGEFETASEYYKKTLLLARQLKDRAVEAQSCYSLGNTYTLLQDYEKAIDYHLKHLAIAQELKDRIGEGRACWSLGNAYTALGNHDQAMHFAEKHLEISREVGDKSGELTARLNLSDLQMVLGLSYSTNNSMMSENIEIDGSLHGAGAKLGRRHSMENLELMK
B3: Insc (18–66) (domain or fragment)
chain: WGLWGAQESRRLCCVGPDRCGQALLQIGINMMALPGGRHLDSVPLQEQR

How the values were obtained:
AGS3-GL1234 (470–631) = target: T1, AGS3-GL1234 (470–631); experiment: ITC
LGN GL3 motif = target: T2, LGN GL3 motif; experiment: ITC
LGN GL4 motif = target: T3, LGN GL4 motif; experiment: ITC
LGN-GL1234 (483–650) = target: T4, LGN-GL1234 (483–650); experiment: ITC
Insc (18–66) = target: B3; experiment: ITC
NuMA (1886–1912) = target: T5, NuMA (1886–1912); experiment: ITC
LGN-TPR (1–409) = target: B2; experiment: ITC
AGS3-L (−23–405) = target: T6, AGS3-L (−23–405); experiment: ITC
FL-AGS3-4E = target: T7, FL-AGS3-4E; experiment: ITC
FL-LGN-4E = target: T8, FL-LGN-4E; experiment: ITC
AGS3-TPR (1–405) = target: T9, AGS3-TPR (1–405); experiment: ITC; AGS3-TPR premixed with NuMA (1886–1912)

Binder: B1
Kd (AGS3-GL1234 (470–631)): 280 nM
Kd (LGN GL3 motif): 42 nM
Kd (LGN GL4 motif): 190 nM
Kd (LGN-GL1234 (483–650)): 260 nM

Binder: B2
Kd (Insc (18–66)): 980 nM
Kd (NuMA (1886–1912)): 630 nM

Binder: B3
Kd (LGN-TPR (1–409)): 980 nM
Kd (AGS3-L (−23–405)): 870 nM
Kd (FL-AGS3-4E): 290 nM
Kd (FL-LGN-4E): 580 nM
Kd (AGS3-TPR (1–405)): 12700 nM
